Test results taken from US20050027104A1.

Columns and labels:
[1] = biological target: human IgD (probe or solid phase; preparation not specified at the place) (human) (UniProt P01880); experiment: SDS-PAGE and Western blot with IgD after 60 C treatment, densitometry, 6 experiments; reference: monomeric MID962-1200
[2] = biological target: surface-expressed B cell receptor (BCR) IgD on human CD19+ peripheral blood lymphocytes (human) (UniProt P01880); experiment: flow cytometry, MID-FITC on PBLs preincubated with rabbit anti-human IgD immunoglobulin fraction (competitor)
[3] = biological target: One of the two myelomas (purified IgD(κ) or IgD(λ); which one is not stated); experiment: dot blot, purified MID in dilutions on membrane, IgD myeloma protein as probe
[4] = biological target: surface-expressed B cell receptor (BCR) IgD on human CD19+ peripheral blood lymphocytes (human) (UniProt P01880); experiment: flow cytometry, MID-FITC on PBLs incubated with the pre-immune serum (no blocking)

Chain of UniProt P01880 (P01880 whole entry): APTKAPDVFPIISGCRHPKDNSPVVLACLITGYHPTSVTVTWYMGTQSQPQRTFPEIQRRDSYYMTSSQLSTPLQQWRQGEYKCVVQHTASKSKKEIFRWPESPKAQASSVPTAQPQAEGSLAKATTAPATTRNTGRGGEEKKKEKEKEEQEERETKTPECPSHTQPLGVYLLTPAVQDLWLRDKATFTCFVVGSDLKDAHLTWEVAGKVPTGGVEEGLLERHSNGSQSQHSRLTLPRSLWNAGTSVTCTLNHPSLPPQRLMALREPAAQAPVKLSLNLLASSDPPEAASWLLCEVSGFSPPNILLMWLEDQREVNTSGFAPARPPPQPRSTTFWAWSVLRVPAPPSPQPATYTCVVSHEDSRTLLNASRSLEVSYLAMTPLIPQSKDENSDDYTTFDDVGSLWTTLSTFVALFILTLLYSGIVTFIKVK

Substance	fold more efficient binding to IgD than the monomeric form [1]	Mean fluorescence intensity (arbitrary units) [2]	least amount of MID detected on the membrane [3]	Mean fluorescence intensity (arbitrary units) [4]
MID962-1200 (F2), tetrameric form	23 fold			
MID, IgD-binding surface exposed protein purified from Moraxella catarrhalis strain Bc5 (native full length MID1-2139)		14.6	0.001 µg	79.2
